Reference: patent publication US20250326839A1, “TREATMENT OF DISEASES RELATED TO COLONY-STIMULATING FACTOR 1 RECEPTOR DYSFUNCTION USING TREM2 AGONISTS” (Vigil Neuroscience, Inc., priority 2020, published 2025)

Columns and labels:
[1] = tested on: human monocyte-derived macrophages (hMDMs); assay: Example 2E: CSF1R inhibition by PLX5622, confluence and morphology (Incucyte); format: cell-based; settings: plates coated with 10 μg/mL, plus PLX5622 1 μM, 96 hours
Method: PBMCs were isolated from fresh, whole blood from human donors. CD14+ monocytes were isolated using positive magnetic selection (Miltenyi). Cells were plated in UpCell® low-adhesion plates and incubated in culture media with 50 ng/mL CSF1 for 48 hours. After 48 hours, cells were non-enzymatically harvested and plated at 25,000 cells per well in cell culture plates coated with 10 μg/mL of either Ab-3 or a matching isotype control. PLX5622 was immediately added to the cultures to 1 μM, and plates were incubated in a humidified incubator at 37 C, 5% CO2 for an additional 96 hours. During incubation, cells were monitored every two hours using an Incucyte S3® analyzer (2 fields of view per well, imaged at 10×). Confluence was measured using built in S3 software, while area and eccentricity (cell shape) were measured using the built in “Cell By Cell” analysis software. Significance was determined by Student's T-test, two-tailed in Graphpad Prism.

[2] = tested on: human monocyte-derived macrophages (hMDMs); assay: Example 1E: CSF1 withdrawal, confluence and Caspase 3/7 apoptosis (Incucyte); format: cell-based; settings: CSF1 withdrawal (0 ng/mL), plates coated with 0.4, 2.0 or 10 μg/mL, 72 hours
Method: PBMCs were isolated from fresh, whole blood from human donors. CD14+ monocytes were isolated using positive magnetic selection (Miltenyi). Cells were plated in UpCell® low-adhesion plates and incubated in culture media with 50 ng/mL CSF1 for 48 hours. After 48 hours, cells were non-enzymatically harvested and plated at 25,000 cells per well in cell culture plates coated with 0.4, 2.0, or 10 μg/mL of either Ab-3 or a matching isotype control, and incubated in a humidified incubator at 37C, 5% CO2 for 72 hours. Caspase-3/7 Green reporter dye was included in the some wells to determine the number of apoptotic events over time. During incubation, cells were monitored every two hours using an Incucyte S3® analyzer (2 fields of view per well, imaged at 10×). Confluence levels were determined using the Incucyte® software, and normalized to CSF1 at 50 ng/mL, which was considered as normal culture conditions. Caspase 3/7 positive counts per field of view were calculated using Incucyte® software. Significance was determined by Ordinary One-Way ANOVA, using multiple comparisons in Graphpad Prism.

B1: Ab-3: murinized version of a human TREM2 agonist antibody, engineered variant of 13E7; HC SEQ ID NO:2779, LC SEQ ID NO:2780 (antibody)
heavy: EVQLVQSGAEVKKPGESLKISCKGSGYSFTSYWIGWVRQMPGKGLEWMGIIYPGDADARYSPSFQGQVTISADKSISTAYLQWSSLKASDTAMYFCARRRQGIFGDALDFWGQGTLVTVSSAKTTPPSVYPLAPGSAAQTNSMVTLGCLVKGYFPEPVTVTWNSGSLSSGVHTFPAVLQSDLYTLSSSVTVPSSTWPSETVTCNVAHPASSTKVDKKIVPRDCGCKPCICTVPEVSSVFIFPPKPKDVLTITLTPKVTCVVVDISKDDPEVQFSWFVDDVEVHTAQTQPREEQFGSTFRSVSELPIMHQDWLNGKEFKCRVNSAAFPAPIEKTISKTKGRPKAPQVYTIPPPKEQMAKDKVSLTCMITDFFPEDITVEWQWNGQPAENYKNTQPIMDTDGSYFVYSKLNVQKSNWEAGNTFTCSVLHEGLHNHHTEKSLSHSPGK
light: EIVMTQSPATLSVSPGERATLSCRASQSVSSNLAWFQQKPGQAPRLLIYGASTRATGIPARFSGSGSGTEFTLTISSLQPEDFAVYYCLQDNNFPPTFGQGTKVDIKRADAAPTVSIFPPSSEQLTSGGASVVCFLNNFYPKDINVKWKIDGSERQNGVLNSWTDQDSKDSTYSMSSTLTLTKDEYERHNSYTCEATHKTSTSPIVKSFNRNEC
modifications: REGION 1..445: note = Murinized Ab-3 HC; REGION 1..214: note = Murinized Ab-3 LC
confluence ([1]; FIG. 5): restoration of confluence to levels similar to that of vehicle alone
cells with “high area, high eccentricity” (ramified) ([1]; FIG. 6): restoration of “high area, high eccentricity” to levels higher than that of vehicle alone
confluence ([2]; donors 16 and 26, FIGS. 1 and 2): increased confluence levels to that of high CSF1 treated cells
Caspase 3/7 levels (apoptosis) ([2]; donors 16 and 26, FIGS. 3 and 4): reduced Caspase 3/7 levels to that of high CSF1 treated cells
